Test [1] concerns the target T1, E1E2 heterodimer (E1E2 glycoprotein) (Hepatitis C virus; strain of this …).
T1 construct: source: HEK293T, transfected, in clarified lysate
Nature of the test: ELISA. The note with it: one partner purified. A general note: An ELISA detects its analyte on a solid surface through an enzyme-linked reagent.

For test [2], the target named is T2, sE2 expressed in mammalian cells (HEK293T lysate) (Hepatitis C virus; strain of this …).
T2 construct: also called mammalian cell-expressed sE2; source: HEK293T, transfected, in clarified lysate
Nature of the test: ELISA. Conditions: one partner purified.

Test [3] deals with T3, full-length (FL) E2 protein (Hepatitis C virus; strain of this …).
T3 construct: source: HEK293T, transfected, in clarified lysate
T3 sequence (P27958 384-746): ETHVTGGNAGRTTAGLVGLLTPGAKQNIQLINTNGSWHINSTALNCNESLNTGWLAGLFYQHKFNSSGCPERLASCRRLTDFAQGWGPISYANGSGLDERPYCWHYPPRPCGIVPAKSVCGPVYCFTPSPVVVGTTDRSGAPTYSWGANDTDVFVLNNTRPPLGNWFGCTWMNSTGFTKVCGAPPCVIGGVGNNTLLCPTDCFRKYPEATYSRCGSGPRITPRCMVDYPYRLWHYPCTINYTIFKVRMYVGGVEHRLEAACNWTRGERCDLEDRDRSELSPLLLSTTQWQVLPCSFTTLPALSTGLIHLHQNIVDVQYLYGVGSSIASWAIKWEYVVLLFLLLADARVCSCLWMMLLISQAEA
Briefly: ELISA. Conditions: one partner purified.

Test [4] has as its target T4, Soluble E2 (sE2), amino acids 384 to 661 of HCV genotype 1a strain H77 (Hepatitis C virus genotype 1a, H77, UniProt P27958).
T4 construct: source: High Five insect cells, recombinant baculovirus, secreted, purified (Ni-nitrilotriacetic acid chromatography)
Briefly: SPR; Biacore 3000, sE2 immobilised on CM5 by amine coupling; MAbs or Fabs injected; HBS pH 7.2, 25°C, 20 μl/min; 1:1 Langmuir fit. The note with it: both partners purified. For orientation: SPR reads the build-up and loss of mass on a sensor chip optically.

The target in test [5] is T5, BSA2 (glutaraldehyde-self-conjugated BSA) (Bos taurus, UniProt P02769).
T5 construct: bovine serum albumin; also called BSA2 control; source: BSA self-conjugated with 0.2% glutaraldehyde, dialysed
T5 sequence (P02769 25-607): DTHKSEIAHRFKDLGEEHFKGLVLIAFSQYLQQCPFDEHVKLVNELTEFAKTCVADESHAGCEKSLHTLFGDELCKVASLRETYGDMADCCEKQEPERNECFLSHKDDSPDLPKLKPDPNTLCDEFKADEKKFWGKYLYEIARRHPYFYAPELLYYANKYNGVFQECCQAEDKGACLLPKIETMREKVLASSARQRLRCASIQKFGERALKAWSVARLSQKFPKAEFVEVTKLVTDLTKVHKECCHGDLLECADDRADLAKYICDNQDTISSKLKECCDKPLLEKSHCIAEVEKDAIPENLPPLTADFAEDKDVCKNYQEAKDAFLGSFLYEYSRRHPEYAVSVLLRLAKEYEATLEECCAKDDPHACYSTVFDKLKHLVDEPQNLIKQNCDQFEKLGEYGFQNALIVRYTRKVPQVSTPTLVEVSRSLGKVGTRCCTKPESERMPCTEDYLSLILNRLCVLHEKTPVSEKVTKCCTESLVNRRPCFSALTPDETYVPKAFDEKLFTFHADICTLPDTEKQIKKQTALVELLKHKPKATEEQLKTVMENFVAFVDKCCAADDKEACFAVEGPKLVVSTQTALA
Nature of the test: ELISA. Conditions: both partners purified.

T4 sequence (P27958 384-661): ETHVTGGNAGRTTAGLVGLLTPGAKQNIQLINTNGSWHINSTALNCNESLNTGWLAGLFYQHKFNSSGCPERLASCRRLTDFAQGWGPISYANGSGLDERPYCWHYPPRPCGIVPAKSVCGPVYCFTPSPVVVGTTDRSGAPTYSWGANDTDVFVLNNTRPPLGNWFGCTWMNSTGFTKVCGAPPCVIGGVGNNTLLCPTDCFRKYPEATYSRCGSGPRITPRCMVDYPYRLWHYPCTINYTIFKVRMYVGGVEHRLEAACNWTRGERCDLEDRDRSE

B1: MAb AP33 (broadly neutralizing mouse monoclonal antibody) (antibody, V domains shown)
VH: EVQLQESGPSLVKPSQTLSLTCSVTGDSITSGYWNWIRKFPGNKLEYMGYISYSGSTYYNLSLRSRISITRDTSKNQYYLQLNSVTTEDTATYYCALITTTTYAMDYWGQGTSVTVSS
VL: NIVLTQSPVSLAVSLGQRATISCRASESVDGYGNSFLHWFQQKPGQPPKLLIYLASNLNSGVPARFSGSGSRTDFTLTIDPVEADDAATYYCQQNNVDPWTFGGGTKLEIK
Usually Kd stands for a measure of binding affinity in units of concentration. A higher Kd goes with lower affinity. One may read the koff as the first-order rate constant of dissociation. Read a low koff as a long-lived complex. Usually kon stands for a measure of how fast the partners come together. Higher therefore signals fast association. For B1, the binding result in test [1], in test [2] and in test [3] was “binds” in each case. For the same molecule, binding in test [4] was put at a Kd of 0.142 nM. The molecule also came in with a koff in test [4] of 6.4e-05 s⁻¹. This molecule had a kon in test [4] of 649000 M⁻¹ s⁻¹.

B2: Fab fragment of AP33 (Fab, V domains shown)
VH: EVQLQESGPSLVKPSQTLSLTCSVTGDSITSGYWNWIRKFPGNKLEYMGYISYSGSTYYNLSLRSRISITRDTSKNQYYLQLNSVTTEDTATYYCALITTTTYAMDYWGQGTSVTVSS
VL: NIVLTQSPVSLAVSLGQRATISCRASESVDGYGNSFLHWFQQKPGQPPKLLIYLASNLNSGVPARFSGSGSRTDFTLTIDPVEADDAATYYCQQNNVDPWTFGGGTKLEIK
notes: source: papain digestion of purified IgG; Fc removed on protein G, gel filtration
In test [4], B2 showed a Kd of 0.72 nM, a koff of 0.000147 s⁻¹ and a kon of 230000 M⁻¹ s⁻¹.

B3: MAb C2 (mouse monoclonal antibody against C-epitope I) (antibody, V domains shown)
VH: EVQLQQPGAELVRPGGSVKLSCKASGYSFTTYWMNWVKQRPGQGLEWIGMIQPSDSETRLNQKFKDKATLTLDRSSSTVYMQLSSPTSDDSAVYYCARTGRGDAWLTYWGQGTSVTVSS
VL: NIVLTQSPVSLAVSLGQRATISCRASKSVSTSGYSYMHWYQQKPGQPPRLLLYLGSNLESGVPARFSGSGSGTDFTLNIHPVEEEDAATYYCQHIRELTRSFGGGTKLEIK
notes: source: also used as hybridoma supernatant
Regarding B3, in test [5], the binding result is reported as “no binding”. Besides, in test [4], the Kd came to 49.8 nM, the koff was 0.000848 s⁻¹ and the kon came to 18800 M⁻¹ s⁻¹.

B4: Fab fragment of the C2 antibody (Fab, V domains shown)
VH: EVQLQQPGAELVRPGGSVKLSCKASGYSFTTYWMNWVKQRPGQGLEWIGMIQPSDSETRLNQKFKDKATLTLDRSSSTVYMQLSSPTSDDSAVYYCARTGRGDAWLTYWGQGTSVTVSS
VL: NIVLTQSPVSLAVSLGQRATISCRASKSVSTSGYSYMHWYQQKPGQPPRLLLYLGSNLESGVPARFSGSGSGTDFTLNIHPVEEEDAATYYCQHIRELTRSFGGGTKLEIK
notes: as for B2
With B4, in test [4], the Kd was 301 nM, the koff is 0.00463 s⁻¹ and the kon was 12800 M⁻¹ s⁻¹.

Values taken from PMC4794675 (Journal of Virology, 2016).
